Experimental data reported in paper PMC10397247.

Assays:
Experiment in all cases: two-hybrid library CCNG1;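 further: natural log of median RNA to DNA barcode read ratio; higher means stronger binding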
4H568-bA = biological target: T1, 4H568-bA
T1 chain: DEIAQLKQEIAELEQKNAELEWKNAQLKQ

4H3782-bA = biological target: T2, 4H3782-bA
T2 chain: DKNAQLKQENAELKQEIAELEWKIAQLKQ

4H338-bA = biological target: T3, 4H338-bA
T3 chain: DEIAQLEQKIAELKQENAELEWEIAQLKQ

4H2618-bA = biological target: T4, 4H2618-bA
T4 chain: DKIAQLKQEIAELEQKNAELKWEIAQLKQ

4H797-bA = biological target: T5, 4H797-bA
T5 chain: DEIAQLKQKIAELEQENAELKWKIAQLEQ

4H4001-bA = biological target: T6, 4H4001-bA
T6 chain: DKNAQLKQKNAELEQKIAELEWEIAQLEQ

4H348-bA = biological target: T7, 4H348-bA
T7 chain: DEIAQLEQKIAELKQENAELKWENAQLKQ

4H3855-bA = biological target: T8, 4H3855-bA
T8 chain: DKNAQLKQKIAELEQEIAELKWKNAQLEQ

4H454-bA = biological target: T9, 4H454-bA
T9 chain: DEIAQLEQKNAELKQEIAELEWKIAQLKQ

4H953-bA = biological target: T10, 4H953-bA
T10 chain: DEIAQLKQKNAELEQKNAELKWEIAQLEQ

P9A-bH = biological target: T11, P9A-bH
T11 chain: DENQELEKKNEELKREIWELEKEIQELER

4H883-bA = biological target: T12, 4H883-bA
T12 chain: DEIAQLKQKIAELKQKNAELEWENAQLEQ

4H717-bA = biological target: T13, 4H717-bA
T13 chain: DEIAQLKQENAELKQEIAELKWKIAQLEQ

4H72-bA = biological target: T14, 4H72-bA
T14 chain: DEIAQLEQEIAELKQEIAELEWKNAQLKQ

4H331-bA = biological target: T15, 4H331-bA
T15 chain: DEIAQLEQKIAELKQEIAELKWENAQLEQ

4H754-bA = biological target: T16, 4H754-bA
T16 chain: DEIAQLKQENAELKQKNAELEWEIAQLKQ

4H3112-bA = biological target: T17, 4H3112-bA
T17 chain: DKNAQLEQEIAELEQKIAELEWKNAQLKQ

4H2576-bA = biological target: T18, 4H2576-bA
T18 chain: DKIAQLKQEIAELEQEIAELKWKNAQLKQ

4H2667-bA = biological target: T19, 4H2667-bA
T19 chain: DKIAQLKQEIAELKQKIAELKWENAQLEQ

4H2442-bA = biological target: T20, 4H2442-bA
T20 chain: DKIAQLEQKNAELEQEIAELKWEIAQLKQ

4H607-bA = biological target: T21, 4H607-bA
T21 chain: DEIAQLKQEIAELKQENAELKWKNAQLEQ

4H3427-bA = biological target: T22, 4H3427-bA
T22 chain: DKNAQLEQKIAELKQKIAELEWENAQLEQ

4H908-bA = biological target: T23, 4H908-bA
T23 chain: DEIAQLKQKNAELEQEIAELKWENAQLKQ

4H492-bN = biological target: T24, 4H492-bN
T24 chain: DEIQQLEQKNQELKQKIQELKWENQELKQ

4H967-bA = biological target: T25, 4H967-bA
T25 chain: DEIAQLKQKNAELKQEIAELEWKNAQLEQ

4H1845-bA = biological target: T26, 4H1845-bA
T26 chain: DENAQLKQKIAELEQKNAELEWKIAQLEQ

4H3185-bA = biological target: T27, 4H3185-bA
T27 chain: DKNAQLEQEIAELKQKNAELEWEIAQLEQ

4H918-bA = biological target: T28, 4H918-bA
T28 chain: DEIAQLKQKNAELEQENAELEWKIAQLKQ

4H1828-bA = biological target: T29, 4H1828-bA
T29 chain: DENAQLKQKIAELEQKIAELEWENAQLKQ

4H2729-bA = biological target: T30, 4H2729-bA
T30 chain: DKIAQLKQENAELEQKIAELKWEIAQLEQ

4H687-bA = biological target: T31, 4H687-bA
T31 chain: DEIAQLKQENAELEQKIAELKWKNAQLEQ

4H3354-bA = biological target: T32, 4H3354-bA
T32 chain: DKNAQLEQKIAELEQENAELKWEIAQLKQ

Work on DENAQLKQKIAELEQKIAELEWENAQLKQ [4H1828-bA] yielded an interaction score (4H568-bA) of 0.727, an interaction score (4H3782-bA) of 0.85 and an interaction score (4H338-bA) of -1.89. It also gave an interaction score (4H2618-bA) of 0.132, an interaction score (4H797-bA) of -0.153 and an interaction score (4H4001-bA) of -0.562. It also gave an interaction score (4H348-bA) of -0.144, an interaction score (4H3855-bA) of -0.259 and an interaction score (4H454-bA) of -1.06. It also gave an interaction score (4H953-bA) of -0.126, an interaction score (P9A-bH) of 0.475 and an interaction score (4H883-bA) of -0.928. It also gave an interaction score (4H717-bA) of -1.09, an interaction score (4H72-bA) of -0.902 and an interaction score (4H331-bA) of -0.739. It also gave an interaction score (4H754-bA) of -1.2, an interaction score (4H3112-bA) of 1.15 and an interaction score (4H2576-bA) of 0.0647. It also gave an interaction score (4H2667-bA) of 0.0606, an interaction score (4H2442-bA) of 0.499 and an interaction score (4H607-bA) of -0.523. For the same binder, the interaction score (4H3427-bA) was 0.974, the interaction score (4H908-bA) was -0.276 and the interaction score (4H492-bN) was -2.71. The interaction score (4H967-bA) was -0.0426, the interaction score (4H1845-bA) was -0.511 and the interaction score (4H3185-bA) was -0.351. For the same binder, the interaction score (4H918-bA) was -0.412, the interaction score (4H1828-bA) was 0.663 and the interaction score (4H2729-bA) was -0.137. It also gave an interaction score (4H687-bA) of -0.0353 and an interaction score (4H3354-bA) of 0.0682.
